# Measurements as given in the nanobody polyreactivity screen of Harvey et al. (2022).
# Assay: yeast display, Sf9 membrane polyspecificity reagent, FACS + sequencing; frameworks hold sequencing errors
# In short: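 Synthetic nanobody libraries on Saccharomyces cerevisiae BJ5465 were galactose-induced for 36–48 hours, stained 1 hour at 4 °C with 10% biotinylated, detergent-solubilized Sf9 membrane reagent and enriched on streptavidin microbeads. FACS then separated cells into low and high (top ~1%) gates by anti-HA (expression) and streptavidin (reagent binding) fluorescence. Genes were colony-PCR amplified, MiSeq 2 × 250 sequenced and CDR-length filtered. A clone's polyreactivity label is that of its gate of origin.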
row,Sequence,polyreactivity (PSR sort gate)
1,QVQLVESGGGLVQAGGSLRLSCAASGSIFSANTMGWYRQEPGKEREFVAGITTSAGRTYYADSVKGRFTISRDNAKNTVYLQMNSLKPEDTAVYYCAARVWRSYNYWGQGTQVTVSS,high polyreactivity
2,QVQLVESGGGLVQAGGSLRLSCAASGSIFSDNVMGGYRQAPGKERELVAAIRDGDTTNYADSVKGRFTISRDNAKNTVYLQMNSLKPEDTAVYYCATRNTWYHRGYDYWGQGTQVTVSS,low polyreactivity
3,QVQLVESGGGLVQAGGSLRLSCAASGSIFSDNVMGWYRQAPGKERELVAAIRDGDTTNYADSVKGRFTISRDNAKNTVYLQMNCLKPEDTAVYYCAAVQASSPDYSYAYLDGDRDYWGQGTQVTVSS,low polyreactivity
4,QVQLVESGGGLVQAGGSLRLSCAASGSIFSENAMGWYRQAPGKERELVAAITGGASTNYADSVKGRFTISRDNAKNTVYLQMNSLKPEDTAVYYCAADANRTKFDYWGQGTQVTVSS,low polyreactivity
5,QVQLVESGGGLVQAGGSLRLSCAASGSIFSFYAMGWYRQAPGKERELVAAISRSGGSTYYADSVKGRFTISRDNAKNTVYLQMNSLKPEDTAVYYCAADYYYGTYDYWGQGTQVTVSS,low polyreactivity
6,QVQLVESGGGLVQAGGSLRLSCAASGSIFSFYAMGWYRQAPGKERELVAAISSSGGSTYYADSVKGRFTISRDNAKNTVYLKMNSLKPEDTAVYYCAARFAYGGGYWGQGTQVTVSS,high polyreactivity
7,QVQLVESGGGLVQAGGSLRLSCAASGSIFSFYAMGWYRQAPGKESELVAAISRSGGSTYYADSVKGRFTISRDNAKNTVYLQMNSQKPEDTAVYYCAVYAFSYPRYYYWGQGTQVTVSS,low polyreactivity
8,QVQLVESGGGLVQAGGSLRLSCAASGSIFSFYTMGWYRQAPGKERELVASSTTYADSVKGRFTISRDNAKNTVYLQMNSLKPEDTAVYYCAVDYNSLRYGPLGYWGQGTQVTVSS,low polyreactivity
9,QVQLVESGGGLVQAGGSLRLSCAASGSIFSGNAMGWYRQAPGKERELVAAITTRSGSTYYADSVKGRFTISRDNAKNTVYLQMNSLKPEDTAVYYCAATGYRYRRIYGFDYWGQGTQVTVSS,high polyreactivity
10,QVQLVESGGGLVQAGGSLRLSCAASGSIFSGNVIGWYRQAPGKERELVAAISGRGGSTYYADSVKGRFTISRDNAKNTVYLQMNSLKPEDTAVYYCAAVYLKTYYWGQGTQVTVSS,high polyreactivity
11,QVQLVESGGGLVQAGGSLRLSCAASGSIFSGYAMGWYRQAPGKERELVAAINSNGGRTYYADSVKGRFTISRDNAKNTVYLQMNSLKPEDTAVYYCNAAKRGWYYDYYYWGQGTQVTVSS,high polyreactivity
12,QVQLVESGGGLVQAGGSLRLSCAASGSIFSGYMGWYRQAPGKERELVATITSGGSTYADSVKGRFTISRDNAKNTVYLQMNSLKPEDTAVYYCAADVSFYTSKYDYWGQGTQVTVSS,low polyreactivity
13,QVQLVESGGGLVQAGGSLRLSCAASGSIFSHYAMGWYRQAPGKERELVAAISSSGNTYYADSVKGRFTISRDNAKNTVYLQMNSLKPEDTAVYYCNAVVYSPYRYEYWGQGTQVTVSS,low polyreactivity
14,QVQLVESGGGLVQAGGSLRLSCAASGSIFSINAMGWYRQAPGKERELVAAISWSGGSTYYADSVKGRFTISRDNAKNTVYLQMNSLKPEDTAVYYCNAEEDEYGELDYWGLGTQVTVSS,low polyreactivity
15,QVQLVESGGGLVQAGGSLRLSCAASGSIFSIYAMGWSRQAPGTERELVATITRNSGRTYYADSVKGRFTISRDNAKNTVYLQMNSLKPEDTAVYYCAASVKIISYLVHSEFLGGELDYWGQGTQVTVSS,low polyreactivity
16,QVQLVESGGGLVQAGGSLRLSCAASGSIFSIYAMGWYRQAPGTERELVASINSGDSTYYADSVKGRFTISRDNAKNTVYVQMNSLKPDDTAVYNCAATLVTVPLYRFDYWGQGTQVTVSS,low polyreactivity
17,QVQLVESGGGLVQAGGSLRLSCAASGSIFSIYAMGWYRQAPRKERELVAAISSSGRTYYADSVKGRFTISRDNAKNTVYLQMNSQKPVDTAVYYCNRVREGKHYYYWGQGTQVTVSS,high polyreactivity
18,QVQLVESGGGLVQAGGSLRLSCAASGSIFSKYVMGWYRQAPGKERELVAAISWSGTRTYYADSVKGRFTISRDNAKNTVYLQMNSLKPEDTAVYYCAARRLYAGHQYDYWGQGTQVTVSS,high polyreactivity
19,QVQLVESGGGLVQAGGSLRLSCAASGSIFSLNAMGWYRQAPGKERELVAVINRSGTRTYYADSVKGRFTISRDNAKNTVYLQINSLKPEVTAVYYCNAEPSSGSDAQNEYWGQGTQVTVSS,high polyreactivity
20,QVQLVESGGGLVQAGGSLRLSCAASGSIFSPNAMGWYRQATGKERELVAAISWTGVSTHYADSVKGRFTISRDNAKNTDYLHMNSLKPEDTAVYYCKYRFYRYPKYGYWGQGTQVTVSS,high polyreactivity
21,QVQLVESGGGLVQAGGSLRLSCAASGSIFSPYAMGWYRQAPGKERELVAAITNSGGRTYYADSVKGRFTISRDNAKNTVYLQMNSLKPEDTAVYYCNADYGKHHTDYYYWGQGTQVTVSS,low polyreactivity
22,QVQLVESGGGLVQAGGSLRLSCAASGSIFSPYAMGWYRQAPGKERELVATITWSGGSTYYADSVKGRFTISRDNAKNTVYLQMNSLKPEDTAVYYCAATRSGYTSYTDDSWGQGTQVTVSS,high polyreactivity

row,Sequence,polyreactivity (PSR sort gate)
1,QVQLVESGGGLVQAGGSLRLSCAASGSIFSQYAMGWYRPAPGKERELVAAISRSGGRTSYADSVKGRFTISRDNAKNTVYLQMNSLKPEDTAVYYCAARGPTNMGYWGQGTQVTVSS,high polyreactivity
2,QVQLVESGGGLVQAGGSLRLSCAASGSIFSQYAMGWYRQAPGKEREFVAAINWSGGRTRYADSVKGRFTISRDNAKNTVYLEMKSLKPEDTAVYYCNARGYSGVSGKYGYWGQGTQVTVSS,high polyreactivity
3,QVQLVESGGGLVQAGGSLRLSCAASGSIFSQYAMGWYRQAPGKERELVAAISGGGGSTSYADSVKGRFTISRDNAKNTVYLQMNSLKPDDTAVYYCAAYLYNRPYQLTGYYDGYGYWGQGTQVTVSS,low polyreactivity
4,QVQLVESGGGLVQAGGSLRLSCAASGSIFSQYAMGWYRQAPGKERELVAAISRSGGRTSYADSVKGRFTISRDNAKNTVYLQMNSLKPEDTAVYYCAARGPTNMGYWGQGTQVTVSS,high polyreactivity
5,QVQLVESGGGLVQAGGSLRLSCAASGSIFSQYVMGWYRQAPGNERELVAAIVWSSGSTYYADSVKGRFTMSRDNAKNTVYLQMNSLKPEDTAVYYCAARTKAFKPGYGYWGQGTQVTVSS,low polyreactivity
6,QVQLVESGGGLVQAGGSLRLSCAASGSIFSRNAMAWYRQAPGKERELVAAISGSGGSTYYADSVKGRFTISRDNAKNTVYLQMNSLKPEDTAVYYCNKFGYHREYDYWGQGTQVTVSS,low polyreactivity
7,QVQLVESGGGLVQAGGSLRLSCAASGSIFSRNAMGWYRQAPGKEREFVARISWSSTSTNYADSVKGRFTISRDNAKNTVYLQMNSLKPEDTAVYYCAADFRGDRRFDYWGQGTQVSVSS,low polyreactivity
8,QVQLVESGGGLVQAGGSLRLSCAASGSIFSRNAMGWYRQAPGKEREFVARISWSSTSTNYAESVKGRFTISRDNAKNTVYLQMNSLKPEDSAVYYCAAHFRGDRRFDYWGQGTQVTVSS,high polyreactivity
9,QVQLVESGGGLVQAGGSLRLSCAASGSIFSRNAMGWYRQAPGKERELVAAISWRGGSTYYADSVKGRFTISRDNAKYTVYLQMNSLKPEDTAVYYCGALSYPGKAGMGYWGQGTQVTVSS,high polyreactivity
10,QVQLVESGGGLVQAGGSLRLSCAASGSIFSRNTMGWYRQAPGKERELVAGISSSGSRTYYADSVKGRFTISRDNPKNTVYLQMNSLKPEDTAVYYCAAEHQRSRGRRYYIGYDYWGQGTQVTVSS,low polyreactivity
11,QVQLVESGGGLVQAGGSLRLSCAASGSIFSRYAMGRYRQAPGKERELVAAISKSGGSTYYADSVKGRFTISRDNAKNTVYLQMNSLKPEDTAVYYCNARDSPGQRRAEPYGYWGQGTQVTVSS,high polyreactivity
12,QVQLVESGGGLVQAGGSLRLSCAASGSIFSRYAMGWYRTAPGKERELVAAINKSGGSTYYADSVKGRFTISRDNAKNTVYLQMNSLKPEDTAVYYCNAVYYWYKGDYWGQGTQVTVSS,high polyreactivity
13,QVQLVESGGGLVQAGGSLRLSCAASGSIFSSNAMGWYRQAPGKERELVAAITRGGRTTYADSVKGRFTISRDNAKKTVYLQMNSLKPEDTAVYYCNAESYLTGWWVDYWGQGTQVTVSS,low polyreactivity
14,QVQLVESGGGLVQAGGSLRLSCAASGSIFSSNAMGWYRQPPGKERELVAAITSGGSTYYADSVKGRFTISRDNAKNTVYLQMNSLKPEDTAVYYCAASYWGFQRMYYWGQGTQVTVSS,high polyreactivity
15,QVQLVESGGGLVQAGGSLRLSCAASGSIFSSNTMGWYRPAPGKERELVAAITSGGGTYYADSVKGRFTISRDNAKNTVYLQMNSLKPEDTAVYYCAAQRVYKSSPSYDYWGQGTQVTVSS,low polyreactivity
16,QVQLVESGGGLVQAGGSLRLSCAASGSIFSSYAMGWSRQAPGKERELVAAISSGDSTYYADSVKGRFTISRDNAKTTVYLQMNSLKPEDTAVYYCAAPWYAWGQGTQVTVSS,low polyreactivity
17,QVQLVESGGGLVQAGGSLRLSCAASGSIFSSYAMGWYRQAPGKERELVAAISQSGGDTYYADSVKGRFTISRDNAKNTVYLQMNSLKPEDTAVYYCAASVWYYPMDYWGKGTQVTVSS,low polyreactivity
18,QVQLVESGGGLVQAGGSLRLSCAASGSIFSSYAMGWYRQAPGKERELVAAISQSGGDTYYADSVKGRFTISRDNAKYTVYLQMNSLKPDDTAVYYCAASVWYFPMDYWGQGTQLTVSS,low polyreactivity
19,QVQLVESGGGLVQAGGSLRLSCAASGSIFSSYAMGWYRQAPGKERELVAAISSGGITYYADSVKGRFTISRDNAKNTVYLQMNSLKPEDTAVYYCAAVRRRGTTYDYWGQGTQVTVSS,high polyreactivity
20,QVQLVESGGGLVQAGGSLRLSCAASGSIFSSYAMGWYRQAPGKERELVAAISTAGSTNYADSVKGRFTISRDNAKNTVYLQINSLKPEDTAVYYCAADSGDQQSYGLDLNHDFDYWGQGSQVTVSS,low polyreactivity
21,QVQLVESGGGLVQAGGSLRLSCAASGSIFSSYAMGWYRQAPGKERELVATITSSGGSTYYADSVKGRFTISRDNAKNTVYLQMNSLKPADTAVYYCAASYHTSYSLRRYYYWGQGTQVTVSS,low polyreactivity
